Measurements: patent US20240116985A1 (published 2024)
Starred links: 1 amine or outer side, 2 acyl side, 3 side chain; linkers in the order of their positions; H or OH if unused. Positions of bridges follow the written chain, without caps; N, C: chain ends. Non-standard residues stand in square brackets, D forms with d. Primed or numbered codes have the meaning given here. PyrS2″ = (S)-3-amino-1-((pent-4-en-1-yloxy)carbonyl)pyrrolidine-3-carboxylic acid (stapling residue), C=CCCCOC(=O)N1CC[C@@](N[*:1])(C(=O)[*:2])C1; (TfePpz)GlnR = (S)-2-amino-5-oxo-5-(4-(2,2,2-trifluoroethyl)piperazin-1-yl)pentanoic acid, O=C(CC[C@H](N[*:1])C(=O)[*:2])N1CCN(CC(F)(F)F)CC1; B5(4) = 2,2-bis(4-pentenyl)glycine = 2-amino-2-(pent-4-en-1-yl)hept-6-enoic acid (stitching residue), C=CCCCC(CCCC=C)(N[*:1])C(=O)[*:2]; B5(5) = 2,2-bis(4-pentenyl)glycine, 2-amino-2-(pent-4-en-1-yl)hept-6-enoic acid (stitching residue), C=CCCCC(CCCC=C)(N[*:1])C(=O)[*:2]; TfeGA = (S)-2-amino-3-((carboxymethyl)(2,2,2-trifluoroethyl)amino)propanoic acid, O=C([C@H](CN(CC(=O)[*:3])CC(F)(F)F)N[*:1])[*:2]; B5(12) = 2-amino-2-(pent-4-en-1-yl)hept-6-enoic acid (two olefin side chains), C=CCCCC(CCCC=C)(N[*:1])C(=O)[*:2]; B5(19) = 2-amino-2-(pent-4-en-1-yl)hept-6-enoic acid (bis(4-pentenyl)glycine), C=CCCCC(CCCC=C)(N[*:1])C(=O)[*:2]; Phe(3-CONH2) = NC(=O)c1cccc(C[C@H](N)C(=O)O)c1; Phe(3-COOH) = N[C@@H](Cc1cccc(C(=O)O)c1)C(=O)O; Bta = N[C@@H](Cc1csc2ccccc12)C(=O)O; Lys(iPr) = CC(C)NCCCC[C@H](N)C(=O)O; αAllylPro = C=CC[C@@]1(C(=O)O)CCCN1; tBuAla = CC(C)(C)C[C@H](N)C(=O)O; 3Thi = N[C@@H](Cc1ccsc1)C(=O)O; Cha = N[C@@H](CC1CCCCC1)C(=O)O; PyrS2(4) = not defined here; TfeGA″ = not defined here; hSer = N[C@@H](CCO)C(=O)O; Nle = CCCC[C@H](N)C(=O)O

T1: B-cat-Halo (UniProt P35222 1-781)
T1 sequence (looked up): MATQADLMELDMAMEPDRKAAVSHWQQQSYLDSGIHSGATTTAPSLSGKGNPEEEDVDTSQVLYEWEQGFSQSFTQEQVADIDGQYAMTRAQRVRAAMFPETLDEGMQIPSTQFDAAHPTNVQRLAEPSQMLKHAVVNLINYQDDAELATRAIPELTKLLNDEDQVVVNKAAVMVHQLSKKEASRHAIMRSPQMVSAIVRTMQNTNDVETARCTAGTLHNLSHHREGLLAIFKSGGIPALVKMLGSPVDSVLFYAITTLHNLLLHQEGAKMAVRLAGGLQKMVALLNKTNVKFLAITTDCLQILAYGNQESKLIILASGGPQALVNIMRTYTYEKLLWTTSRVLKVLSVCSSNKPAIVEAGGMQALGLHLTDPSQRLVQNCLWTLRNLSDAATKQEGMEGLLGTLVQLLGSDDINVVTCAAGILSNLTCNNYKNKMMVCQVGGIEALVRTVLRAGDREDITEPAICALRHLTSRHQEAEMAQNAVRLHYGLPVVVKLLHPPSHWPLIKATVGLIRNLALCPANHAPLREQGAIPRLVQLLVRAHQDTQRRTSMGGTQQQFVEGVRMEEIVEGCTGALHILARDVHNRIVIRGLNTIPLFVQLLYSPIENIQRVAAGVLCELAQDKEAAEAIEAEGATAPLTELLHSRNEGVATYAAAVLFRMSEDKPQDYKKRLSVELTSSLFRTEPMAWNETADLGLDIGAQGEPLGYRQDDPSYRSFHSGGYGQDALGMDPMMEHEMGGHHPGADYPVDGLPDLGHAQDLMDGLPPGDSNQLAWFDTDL

T2: B-cat-Halo (beta-catenin HaloTag construct transfected into HEK293 cells) (UniProt P35222 1-781)
T2 sequence (looked up): T1 sequence (looked up)

B1: I-1919 (peptide)
peptide: Ac-[αAllylPro]D[tBuAla][B5(4)]D[Phe(3-COOH)][Nle]AFL[PyrS2(4)][3Thi][Bta]A-NH2
modifications: staple 1-4, 4-11; not fully specified; printed as Ac-PL3-Asp-Npg-B5-Asp-3COOHF-nLeu-Ala-Phe-Leu-PyrS2-3Thi-BztA-Ala-NH2; reading uncertain
B2: I-1913 (peptide)
peptide: Ac-[αAllylPro]D[tBuAla][B5(12)]D[Phe(3-COOH)][Nle]AFL[PyrS2(4)][3Thi][Bta]F-NH2
modifications: staple 1-4, 4-11; not fully specified; printed as Ac-PL3-Asp-Npg-B5-Asp-3COOHF-nLeu-Ala-Phe-Leu-PyrS2-3Thi-BztA-Phe-NH2; reading uncertain

Each binder was assayed against T1, B-cat-Halo (assay: cell-based or functional assay).

| NanoBRET Abs IC50 | Binder |
| --- | --- |
| > 20 µM | Ac-[αAllylPro]D[tBuAla][B5(5)]D[TfeGA][Lys(iPr)]AFT[PyrS2″][3Thi][Bta]V-NH2 (staple 1-4, 4-11) [I-1764] |
| > 20 µM | Ac-[αAllylPro]D[tBuAla][B5(5)]D[TfeGA][Lys(iPr)]AFT[PyrS2″][3Thi][Bta]F-NH2 (staple 1-4, 4-11; also: -CH=CH- in each staple reduced to -CH2-CH2-) [I-1768] |
| 23.7 µM | Ac-[αAllylPro]D[tBuAla][B5(5)]D[TfeGA]AAFL[PyrS2″][3Thi][Bta]F-NH2 (staple 1-4, 4-11) [I-1750] |
| > 20 µM | Ac-[αAllylPro]D[tBuAla][B5(5)]D[TfeGA][Lys(iPr)]AFL[PyrS2″][3Thi][Bta]L-NH2 (staple 1-4, 4-11) [I-1759] |
| > 20 µM | Ac-[αAllylPro]D[tBuAla][B5(5)]D[TfeGA][Lys(iPr)]AFT[PyrS2″][3Thi][Bta]L-NH2 (staple 1-4, 4-11) [I-1760] |
| > 20 µM | Ac-[αAllylPro]D[tBuAla][B5(5)]D[TfeGA][Lys(iPr)]AFT[PyrS2″][3Thi][Bta]V-NH2 (staple 1-4, 4-11; also: -CH=CH- in each staple reduced to -CH2-CH2-) [I-1770] |
| > 20 µM | Ac-[αAllylPro]D[tBuAla][B5(5)]D[TfeGA″][Lys(iPr)]AFT[PyrS2(4)][3Thi][Bta]F-NH2 (staple 1-4, 4-11; not fully specified; reading uncertain) [I-1762] |
| 20.2 µM | Ac-[αAllylPro]D[tBuAla][B5(5)]D[TfeGA]AAFL[PyrS2″][3Thi][Bta]L-NH2 (staple 1-4, 4-11) [I-1748] |
| > 20 µM | Ac-[αAllylPro]D[tBuAla][B5(5)]D[TfeGA][Lys(iPr)]AFL[PyrS2″][3Thi][Bta]F-NH2 (staple 1-4, 4-11) [I-1761] |
| > 20 µM | Ac-[αAllylPro]D[tBuAla][B5(5)]D[TfeGA][Lys(iPr)]AFL[PyrS2″][3Thi][Bta]V-NH2 (staple 1-4, 4-11) [I-1763] |

The binders below were run against T2, B-cat-Halo (beta-catenin HaloTag …) (assay: cell-based or functional assay).

| NanoBRET Abs IC50 | Binder |
| --- | --- |
| 4.7 µM | B1 |
| 7.1 µM | Ac-[αAllylPro]D[tBuAla][B5(19)]D[TfeGA]AAF[(TfePpz)GlnR][PyrS2″][3Thi][Bta]Q-NH2 (staple 1-4, 4-11) [I-1935] |
| > 20 µM | Ac-[αAllylPro]N[Cha][B5(19)]DQ[Lys(iPr)]AFN[PyrS2″][Phe(3-CONH2)][Bta][hSer]-NH2 (staple 1-4, 4-11) [I-1929] |
| 17.5 µM | B2 |
